{"source": "patent US20040131591A1", "about": "(OXFORD BIOMEDICA UK, published 2004)", "target": "T1, human 5T4 (oncofetal glycoprotein 5T4, trophoblast cell surface antigen) (human, UniProt Q13641 32-420)", "T1 construct": "whole, on cells; also called h5T4; 5T4 antigen", "T1 sequence (looked up)": "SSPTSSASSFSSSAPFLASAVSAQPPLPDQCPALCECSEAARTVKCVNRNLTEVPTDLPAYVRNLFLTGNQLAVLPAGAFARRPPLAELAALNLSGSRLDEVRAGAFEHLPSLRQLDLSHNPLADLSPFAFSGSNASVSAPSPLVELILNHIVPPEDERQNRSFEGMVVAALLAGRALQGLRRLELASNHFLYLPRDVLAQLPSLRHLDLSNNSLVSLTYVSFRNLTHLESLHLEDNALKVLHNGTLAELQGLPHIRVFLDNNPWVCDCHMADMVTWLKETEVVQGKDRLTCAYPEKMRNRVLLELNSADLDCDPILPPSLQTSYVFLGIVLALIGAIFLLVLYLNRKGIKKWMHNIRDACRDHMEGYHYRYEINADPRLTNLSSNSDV", "experiment": "FACS: A9-h5T4 cells with B7.1/ScFv supernatant, then CTLA4-Ig, detected with FITC anti-mouse Ig", "experimental": "After washing cells were incubated with CTLA4-Ig (Ancell) for 1 hour. After washing, bound CTLA4-Ig was detected using an FITC conjugated anti-mouse Ig (Dako).", "data": [{"binder": "B7-1/ScFv fusion protein (leader sequence and extracellular domain of murine B7.1 fused via a flexible linker to the VH and VL of the murine Mab 5T4 specific … (other, Tested as about 30-fold concentrated supernatant of transiently transfected 293T cells; also called B7/ScFv; OBM 233) VDEQLSKSVKDKVLLPCRYNSPHEDESEDRIYWQKHDKVVLSVIAGKLKVWPEYKNRTLYDNTTYSLIILGLVLSDRGTYSCVVQKKERGTYEVKHLALVKLSIKADFSTPNITESGNPSADTKRITCFASGGFPKPRFSWLENGRELPGINTTISQDPESELYTISSQLDFNTTRNHTIKCLIKYGDAHVSEDFTWEKPPEDPPDSKPGGGGSGGGGSGGGGTSEVQLQQSGPDLVKPGASVKISCKASGYSFTGYYMHWVKQSHGKSLEWIGRINPNNGVTLYNQKFKDKAILTVDKSSTTAYMELRSLTSEDSAVYYCARSTMITNYVMDYWGQVTSVTVSSGGGGSGGGGTGGGGSSIVMTQTPTFLLVSAGDRVTITCKASQSVSNDVAWYQQKPGQSPTLLISYTSSRYAGVPDRFIGSGYGTDFTFTISTLQAEDLAVYFCQQDYNSPPTFGGGTKLEIKR", "values": [{"measurement": "binding result", "result": "binds"}]}]}
